For orientation: Kd means the constant that tells how readily two partners part at equilibrium. A lower Kd goes with higher affinity.

For one molecule, Kd results are on record in patent publication US20060275823A1 (published 2006).

This assay concerns the target T1, ICS (pro-IL-1beta-derived epitope).
T1 construct: also called ICS peptide; 14-mer called ICS
T1 peptide: NEAYVHDGPVRSLN
Briefly: method not stated; measured in a different context from the cleavage assay, with LEPB lacking a free N-terminus.

B1: LEPB (peptide)
peptide: KARKEAELAAATAEQ
notes: In the ICE cleavage experiment it was a synthetic peptide with a free N-terminus; also called synthetic LEPB; 15mer (LEPB)
In turn, B1 returned a Kd of 2 µM.
